According to the supplement of paper PMC9170038:

Test system: MS2 coat protein
Assay: apparent KD of MS2 coat protein; designed switch direction (-1 OFF switch, 1 ON switch): 1; higher = weaker reporter binding
Summary of the method: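 Apparent KD, taken as the median over clusters for each design, was obtained by curve-fitting normalised cluster fluorescence. Designed RNA switches had been transcribed on Illumina chips by stalled E. coli RNA polymerase and titrated with SNAP-549-labelled MS2 coat protein, doubling from 0.7 or 1.5 nM to 3 µM.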

[1] = input ligand: microRNA oligo, concentration not stated
[2] = Eterna round: R95, input ligand: FMN 200 uM
[3] = Eterna round: R95, input ligand: microRNA oligo, concentration not stated
[4] = Eterna round: R95, input ligand: none

Sequence | apparent KD of MS2 coat protein (input ligand: FMN 200 uM) | apparent KD of MS2 coat protein [1] | apparent KD of MS2 coat protein (input ligand: none) | apparent KD of MS2 coat protein [2] | apparent KD of MS2 coat protein [3] | apparent KD of MS2 coat protein [4]
GUUACAUGAGGAUCACCCAUGUAUGUGUGGGAGUAAGUGUCUUAGGAUAUCUAUGAUUUAGUUUAAGAGAAGGAAGAUUGUUGU [JMF's solution 79] (Eterna round: R96, puzzle: Same State NG 3) | 117 nM | 86.3 nM | 111 nM | – | – | –
GAGUGGCAGUUAGGAUAUAUAGUGAUAAUCACAGUAGAAGGAACUGACAUGAGGAUCACCCAUGUAGGACUAAUCCAGAGAGAG [Parity 41 - Jieux - Same State NG 1] (Eterna round: R96, puzzle: Same State NG 1) | 65.7 nM | 29.8 nM | 44.2 nM | – | – | –
AGUCCAGCCUGAGCUGGACAAAAGCAUGUACAUGAGGAUCACCCAUGUUCAUGUACAAGCUUUUUGCUCGUCUUGCG [salish99_208a_r3_106x] (puzzle: Sensor for hsa-mir-208a) | – | – | – | 641 nM | 17.3 nM | 867 nM
GUUAAACAUGAGGAUCACCCAUGUAAUAAUAUGGGAGGAUAUGGGAAUUAAUUAAUUAAACCAGAAGGCCUAAUUG [Mat - Same State 1 - D84] (puzzle: Same State 1) | – | – | – | 25.3 nM | 142 nM | 189 nM
GGUCCAGCCUGAGCUGGACUACAGCAUGUACAUGAGGAUCACCCAUGUCAUGUACAAGAAUGUUGUUUGUCUUAAAA [Sensorship 8 - Jieux - Sensor for hsa-mir-208a] (puzzle: Sensor for hsa-mir-208a) | – | – | – | 88.1 nM | 64.3 nM | 118 nM
GGGUAGGAGCUACAGGAUAUAUAGAAGUUGACAUGAGGAUCACCCAUGUAAGGGUACGGAGGCGGAUAGAAGGGUAUGGGAGGUG [JR_SS2_Sub033] (puzzle: Same State 2) | – | – | – | 55.5 nM | 54.2 nM | 64.9 nM
UGUUAACAUGAGGAUCACCCAUGUCAAAUGAAUCGAGGAUAUGGGAAGGAAGAAGAGAAACUAGAAGGCGAAGUUG [Altered State 1-4 - Jieux - Same State 1] (puzzle: Same State 1) | – | – | – | 835 nM | 56.8 nM | 216 nM
UAUUUAAUCAUAGGAUAUAGUGUGAAAUUUGGACUAGAAGGAUGUAACAUGAGGAUCACCCAUGUGGUAAGUGGGACACAUUGA [JR_SSNG1_Sub097] (Eterna round: R96, puzzle: Same State NG 1) | – | 86.7 nM | – | – | – | –
AUUAUUAAUGCAGGAUAUGAUUAACAUGAGGAUCACCCAUGUGGUGUUGUGAGUAAGGAGAGUGAUCAGAAGGGCAUUUUUGUU [JMF's solution 14] (Eterna round: R96, puzzle: Same State NG 2) | 811 nM | 330 nM | 629 nM | – | – | –
UGGUACAUGGGAGGAUAUGGAGUGAUGACAUGAGGAUCACCCAUGUUAUAAAUGCCGAGAGGCAACUAGAAGGCCCAUGUACCU [JL SSNG1 3.95] (Eterna round: R96, puzzle: Same State NG 2) | 23.2 nM | 149 nM | 149 nM | – | – | –
GUAAUAAAGGAAGGAUAUGGGUAAACGGGAAUCCCAGAAGGUCCACAUGAGGAUCACCCAUGUGGUCCCGAAACCACGGGACCG [Enbive] (Eterna round: R96, puzzle: Same State NG 1) | 84.2 nM | 60.5 nM | 75 nM | – | – | –
AAUACAAAUAGUCAGGAUAUCAAAAAUAAGACAUGAGGAUCACCCAUGUAAUAAGUAAAAGUAAAUGAGAAGGGACAGGGUGAAA [JR_SS002_Sub401] (Eterna round: R96, puzzle: Same State 2) | – | 197 nM | – | – | – | –
CAAGUACAUGAGGAUCACCCAUGUGGAAGAGAUGCAGGAUAUGUGGGAGAAGGGAGUGUAACAGAAGGGCAAGGAG [JR_SS!_Sub019] (puzzle: Same State 1) | – | – | – | 113 nM | 71.8 nM | 109 nM
UUUAGUUGCGGGCAGGAUAUGUAUUAAAAUACAUGAGGAUCACCCAUGUGAGGUCAUAAAGACCUACAGAAGGGCCAAUCGCGAC [Laonerce - 16] (puzzle: Same State 2) | – | – | – | 16.5 nM | 64.8 nM | 66.2 nM
UCUUGGUUUUUGCUCGUUUUUUGUGUUGAACAUGAGGAUCACCCAUGUAUUGUACGAUCCGGUUUAGUGAUGGUCCG [JMF 63] (puzzle: Sensor for hsa-mir-208a) | – | – | – | 40.8 nM | 27.7 nM | 42.1 nM
